Laboratory results: patent US10494415B2, “Insulin-like growth factor 2 (IGF2) binding agents” (Cancer Research Technology Limited, priority 2015, dated 2019)
Positions count from the first letter of the chain named. Names may count otherwise.

B1: T1633A: domain 11 HI loop mutant T1633A, probably AB5 background (protein)
chain: MKSNEHDDCQVTNPSTGHLFDLSSLSGRAGFTAAYAKGWGVYMSICGENENCPPGVGACFGQTRISVGKANKRLRYVDQVLQLVYKDGSPCPSKSGLSYKSVISFVCRPEAGPTNRPMLISLDKQACTLFFSWHTPLACEQATECSV
B2: AB3 Q1569R P1597K: domain 11 AB3 + Q1569R, P1597K (protein)
chain: B1 chain with A36S, G38S, W39G, G40V, Q62R, P90K, A126T
B3: AB3 Q1569R P1597K S1602H G1603K: domain 11 AB3 + Q1569R, P1597K, S1602H, G1603K (protein)
chain: B1 chain with A36S, G38S, W39G, G40V, Q62R, P90K, S95H, G96K, A126T
B4: AB3 P1597H K1631W: domain 11 AB3 + P1597H, K1631W (protein)
chain: B1 chain with A36S, G38S, W39G, G40V, P90H, K124W, A126T
B5: AB3 Q1569R P1597K S1602H: domain 11 AB3 + Q1569R, P1597K, S1602H (protein)
chain: B1 chain with A36S, G38S, W39G, G40V, Q62R, P90K, S95H, A126T
B6: AB5 P1597L: domain 11 AB5 + P1597L (protein)
chain: B1 chain with P90L, A126T
B7: AB5 P1597H: domain 11 AB5 + P1597H (protein)
chain: B1 chain with P90H, A126T
B8: WT + 312G (HI-VKLM): wild-type domain 11 with HI loop VKLM (clone 312G) (protein)
chain: B1 chain with A36S, K37E, G38K, W39G, G40L, D123V, Q125L, A126M
B9: AB5 P1597N: domain 11 AB5 + P1597N (protein)
chain: B1 chain with P90N, A126T
B10: AB5 P1597Q: domain 11 AB5 + P1597Q (protein)
chain: B1 chain with P90Q, A126T
B11: AB3 P1597H HI^23D: domain 11 AB3 + P1597H + HI loop of clone 23D (HFQS) (protein)
chain: B1 chain with A36S, G38S, W39G, G40V, P90H, D123H, K124F, A126S
B12: AB3 P1597H: domain 11 AB3 + FG loop P1597H (protein)
chain: B1 chain with A36S, G38S, W39G, G40V, P90H, A126T
B13: WT + 23D (HI-HFQS): wild-type domain 11 with HI loop 1630-1633 HFQS (clone 23D) (protein)
chain: B1 chain with A36S, K37E, G38K, W39G, G40L, D123H, K124F, A126S
B14: AB5 Q1569R: domain 11 AB5 + CD loop Q1569R (protein)
chain: B1 chain with Q62R, A126T
B15: AB5 P1597A: domain 11 AB5 + P1597A (protein)
chain: B1 chain with P90A, A126T
B16: AB5 P1597S: domain 11 AB5 + P1597S (protein)
chain: B1 chain with P90S, A126T
B17: AB3 Q1569R: domain 11 AB3 + CD loop Q1569R (protein)
chain: B1 chain with A36S, G38S, W39G, G40V, Q62R, A126T
B18: AB3 P1597K: domain 11 AB3 + FG loop P1597K (protein)
chain: B1 chain with A36S, G38S, W39G, G40V, P90K, A126T
B19: AB3 Q1569R P1597H S1602H: domain 11 AB3 + Q1569R, P1597H, S1602H (protein)
chain: B1 chain with A36S, G38S, W39G, G40V, Q62R, P90H, S95H, A126T
B20: AB5 + 51F (HI-NRQS): domain 11 AB5 with HI loop NRQS (clone 51F) (protein)
chain: B1 chain with D123N, K124R, A126S
B21: AB5 P1597K: domain 11 AB5 + P1597K (protein)
chain: B1 chain with P90K, A126T
B22: AB3 Q1569R P1597H: domain 11 AB3 + Q1569R, P1597H (protein)
chain: B1 chain with A36S, G38S, W39G, G40V, Q62R, P90H, A126T
B23: AB3 P1597K S1602H: domain 11 AB3 + P1597K, S1602H (protein)
chain: B1 chain with A36S, G38S, W39G, G40V, P90K, S95H, A126T
B24: WT + 26C (HI-DMQT): wild-type domain 11 with HI loop DMQT (clone 26C) (protein)
chain: B1 chain with A36S, K37E, G38K, W39G, G40L, K124M, A126T
B25: W1546F: domain 11 AB5 with W1546F in the AB loop (protein)
chain: B1 chain with W39F, A126T
B26: WT + 27G (HI-NMAL): wild-type domain 11 with HI loop NMAL (clone 27G) (protein)
chain: B1 chain with A36S, K37E, G38K, W39G, G40L, D123N, K124M, Q125A, A126L

Molecular target: IGF2 (Homo sapiens, UniProt P01344)
Test: SPR (Biacore T200) of recombinant IGF2R domain 11 mutants on immobilised biotinylated IGF2
Assay type: binding
Set-up: purchased GroPep
From the text: Surface plasmon resonance (SPR) binding analysis of recombinant M6P/IGF2R domain 11 mutants interaction with IGF2. Kon indicates association (on) rate; koff, dissociation (off) rate; RU, response units. Binding to IGF2 assessed with BIAcore T200 using purified biotinylated IGF2 and IGF1 on a streptavidin biosensor chip. Recombinant proteins were expressed either in E. coli and/or P. pastoris. All the mutants in the FG and CD loops are on the domain 11^AB5 background for the AB loop unless otherwise stated. All experiments were carried out at 25° C. in HBS-EP buffer (pH 7.4), were repeated 2-5 times on two independent BIAcore chips. nd=not determined. Data for KD expressed as mean of each experiment, and means of kon and koff are shown.
Measurements were carried out at 25° C. in HBS-EP buffer (pH 7.4) (nd=not determined, np=no protein). Data for KD expressed as mean of each experiment, and means of kon and koff are shown.
Measurements were carried out at 25° C. in MES-EP buffer, 20 mM MES pH 6.5, 150 mM NaCl, 3 mM EDTA, and 0.005% (v/v) surfactant P20). Data for KD expressed as mean of each experiment, and means of kon and koff are shown.
Final kinetic analysis of mutants by SPR was conducted using a Biacore T200 biosensor at 25° C. in either HBS-EP (10 mM HEPES pH 7.4, 150 mM NaCl, 3 mM EDTA, and 0.005% (v/v) surfactant P20) or MES-EP (20 mM MES pH 6.5, 150 mM NaCl, 3 mM EDTA, and 0.005% (v/v) surfactant P20) at a flow-rate of 40 μL min^−1. […] For the analysis of the Fc-domain 11^AB5 interaction, approximately 50 RU of a biotinylated IGF2:biotinylated ubiquitin mixture (1:8 proportion) was immobilized on the CM5-streptavidin chip. This interaction was also analysed by immobilizing the Fc-domain 11^AB5 and Fc-domain 11^AB5-RHH (or Fc-domain 11^I1572A as control) by Human Antibody Capture (monoclonal mouse anti-human IgG antibody immobilised on a CM5 chip by amine coupling, GE Healthcare) with and without human IgG1 Fc fragment (Bethyl Laboratories, UK) in the control flow cell. Increasing concentrations of IGF2^1-67, proIGF2^1-104, proIGF2^1-156 and IGF1 ranging from 0.125 to 32 nM were injected. T200 BiaEvaluation software (GE Healthcare) was used to fit the resulting curves according to a 1:1 binding model. Steady state affinities were determined using the kinetic data, taking the response average at 5 seconds before injection end and for 5 seconds average. Thermodynamic data was performed across the temperature range of 10° C. to 30° C., van't Hoff and Erying plots generated and ΔH, −TΔS and ΔG values determined as previously described.

IGF2, sequence (P01344 25-91): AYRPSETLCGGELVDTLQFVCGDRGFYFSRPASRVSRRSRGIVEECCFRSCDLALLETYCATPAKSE

| Molecule | Kinetics koff (Table 3, 25° C., HBS-EP pH 7.4) [s⁻¹] | Kinetics kon (Table 3, 25° C., HBS-EP pH 7.4) [M⁻¹ s⁻¹] | also measured |
| --- | --- | --- | --- |
| B1 | – | – | Kinetics koff (Table 1, 25° C., HBS-EP pH 7.4): 0.0196 s⁻¹; Kinetics kon (Table 1, 25° C., HBS-EP pH 7.4): 800000 M⁻¹ s⁻¹ |
| B2 | 0.0241 | 2e+07 | – |
| B3 | 0.0171 | 2.08e+07 | – |
| B4 | 0.3478 | 1.97e+07 | – |
| B5 | 0.016 | 2.01e+07 | – |
| B6 | 0.0150 | 4.18e+06 | – |
| B7 | 0.0070 | 3.68e+06 | – |
| B8 | – | – | Kinetics koff (Table 2): 0.15 s⁻¹; Kinetics kon (Table 2): 1.07e+06 M⁻¹ s⁻¹ |
| B9 | 0.0180 | 4.72e+06 | – |
| B10 | 0.0203 | 6.53e+06 | – |
| B11 | 0.012 | – | – |
| B12 | 0.013 | 1.06e+07 | Kinetics koff (Table 2): 0.013 s⁻¹; Kinetics kon (Table 2): 1.06e+07 M⁻¹ s⁻¹ |
| B13 | – | – | Kinetics koff (Table 2): 0.065 s⁻¹; Kinetics kon (Table 2): 250000 M⁻¹ s⁻¹ |
| B14 | 0.0175 | 8.04e+06 | – |
| B15 | 0.0174 | 1.9e+06 | – |
| B16 | 0.0193 | 5e+06 | – |
| B17 | 0.031 | 1.36e+07 | Kinetics koff (Table 2): 0.031 s⁻¹; Kinetics kon (Table 2): 1.36e+07 M⁻¹ s⁻¹ |
| B18 | 0.0287 | 1.05e+07 | – |
| B19 | 0.010 | 1.41e+07 | Kinetics koff (Table 4, MES-EP pH 6.5): 0.0064 s⁻¹; Kinetics kon (Table 4, MES-EP pH 6.5): 1.61e+07 M⁻¹ s⁻¹ |
| B20 | – | – | Kinetics koff (Table 2): 0.10 s⁻¹; Kinetics kon (Table 2): 7.4e+06 M⁻¹ s⁻¹ |
| B21 | 0.0120 | 9.54e+06 | – |
| B22 | 0.0153 | 1.89e+07 | Kinetics koff (Table 4, MES-EP pH 6.5): 0.0091 s⁻¹; Kinetics kon (Table 4, MES-EP pH 6.5): 1.99e+07 M⁻¹ s⁻¹ |
| B23 | 0.0102 | 2.74e+06 | – |
| B24 | – | – | Kinetics koff (Table 2): 0.24 s⁻¹; Kinetics kon (Table 2): 1.89e+06 M⁻¹ s⁻¹ |
| B25 | – | – | Kinetics koff (Table 1, 25° C., HBS-EP pH 7.4): 0.0180 s⁻¹; Kinetics kon (Table 1, 25° C., HBS-EP pH 7.4): 4.5e+06 M⁻¹ s⁻¹ |
| B26 | – | – | Kinetics koff (Table 2): 0.25 s⁻¹; Kinetics kon (Table 2): 2e+06 M⁻¹ s⁻¹ |
